Measurements published in patent publication US20210403552A1 (SHANGHAI GENBASE BIOTECHNOLOGY, published 2021).
Read-outs that look alike come from different tables or passages of the source.

T1: mouse CLDN18.2 (mouse, UniProt P56857 10-264)
T1 construct: over-expressed on HEK293T cells by lentivirus; also called mCLDN18.2; murine CLDN18.2
T1 chain: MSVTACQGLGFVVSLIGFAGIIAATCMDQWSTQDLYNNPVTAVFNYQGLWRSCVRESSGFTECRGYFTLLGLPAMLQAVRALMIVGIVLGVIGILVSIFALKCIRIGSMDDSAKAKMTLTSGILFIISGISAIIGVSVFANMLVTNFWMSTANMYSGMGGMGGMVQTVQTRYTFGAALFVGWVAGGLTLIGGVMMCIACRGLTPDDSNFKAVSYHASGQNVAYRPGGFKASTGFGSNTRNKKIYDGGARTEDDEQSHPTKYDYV


Key:
[1] = target: human CLDN18.2 (human); experiment: cell-based or functional assay
[2] = target: human CLDN18.2 (human); experiment: cell-based or functional assay; remark: listed apart in the source
[3] = target: T2, human CLDN18.2 (human); experiment: imaging cytometry (% fluorescent cells), HEK293T-hCLDN18.2 cells
T2 construct: over-expressed on HEK293T or OCUM-1 cells by lentivirus; KATO-III and NUGC4 gastric cancer cells express it naturally; also called hCLDN18.2; hCLDNA18.2
Procedure: (§1) 10,000 cells were plated in 100 μL of DMEM containing 10% FBS per well in a flat-bottomed 96-well plate. After the cells adhered or were settled to the bottom of the wells overnight, the supernatant was removed on the next day. 3-Fold gradient dilution of antibody was performed by diluting 1/3 of the total volume (i.e., 100 μL) in 200 μL of DMEM. 100 μL of the diluted antibody (the supernatants of fused clones or subclones was used in the screening) was added to each well of the cell plate, 100 μL of DMEM was added to the corresponding negative control well, and incubation was carried out for 1 hour at room temperature. After removing the supernatant, 100 μL of secondary antibody (5 μg/mL, diluted in DMEM) was added to each well, and incubated at room temperature for 0.5 hours. The supernatant was removed after staining, followed by washing with PBS once. 100 μL of PBS was added to each well, and then reading was carried out on the cytometer.
(§2) A full-field scanning cytometer (Nexcelom, Celigo® Image Cytometer) was used to measure the readings of the experimental plate. During the measurement, high-speed scanning imaging of the cells in the well was simultaneously performed in the green fluorescent channel corresponding to the secondary antibody and in the bright field channel. The cells that bound the antibody were counted in the image obtained from the green fluorescent channel under the parameters set in accordance with the morphology and fluorescence intensity of the fluorescently labeled cells, and the adhered cells were counted in the image obtained from the bright field channel under the parameters set in accordance with the morphology of the cells. […] The data analysis was performed using GraphPad.

[4] = target: T2, human CLDN18.2; experiment: cell-based or functional assay; remark: listed apart in the source
[5] = target: T2, human CLDN18.2; experiment: cell-based or functional assay; remark: listed apart in the source
[6] = target: T2, human CLDN18.2; experiment: imaging cytometry (% fluorescent cells), HEK293T-hCLDN18.2 cells; remark: listed apart in the source
Procedure: as §1, §2

[7] = target: T2, human CLDN18.2; experiment: cell-based or functional assay; remark: listed apart in the source
[8] = target: T2, human CLDN18.2; experiment: imaging cytometry (% fluorescent cells), OCUM1-hCLDN18.2 cells
From the text: (§3) HEK293T-hCLDN18.2 and OCUM-1-hCLDN18.2 expressing human CLDN18.2 (hCLDN18.2), or HEK293T-mCLDN18.2 expressing mouse CLDN18.2 (mCLDN18.2) and the corresponding negative control cell line HEK293T were used; or HEK293T-hCLDN18.1 and CHOS-hCLDN18.1 expressing human CLDN18.1 (hCLDN18.1) were used. DyLight488 goat anti-mouse IgG (Abcam, Catalog No. ab97015) or DyLight488 goat anti-human IgG (Abcam, Catalog No. ab97003) was used as secondary antibody. Binding curves were generated by using the following method.
as §1
(§4) A full-field scanning cytometer (Nexcelom, Celigo® Image Cytometer) was used to measure the readings of the experimental plate. During the measurement, high-speed scanning imaging of the cells in the well was simultaneously performed in the green fluorescent channel corresponding to the secondary antibody and in the bright field channel. The cells that bound the antibody were counted in the image obtained from the green fluorescent channel under the parameters set in accordance with the morphology and fluorescence intensity of the fluorescently labeled cells, and the adhered cells were counted in the image obtained from the bright field channel under the parameters set in accordance with the morphology of the cells.

[9] = target: T1, mouse CLDN18.2; experiment: imaging cytometry (% fluorescent cells), HEK293-mCLDN18.2 cells
From the text: as §3, §1, §4

[10] = target: T2, human CLDN18.2; experiment: imaging cytometry (% fluorescent cells), HEK293-hCLDN18.2 cells
From the text: as §3, §1, §4

[11] = target: T3, human CLDN18.1 (human, UniProt P56856 1-261); experiment: imaging cytometry (% fluorescent cells), HEK293-hCLDN18.1 cells
T3 construct: over-expressed on HEK293T or CHOS cells by lentivirus; also called hCLDN18.1
From the text: as §3
(§5) 10,000 cells were plated in 100 μL of DMEM containing 10% FBS per well in a flat-bottomed 96-well plate. After the cells adhered or were settled to the bottom of the wells overnight, the supernatant was removed on the next day. […] 100 μL of PBS was added to each well, and then reading was carried out on the cytometer.
as §4, with “During the measurement, high-speed scanning imaging of the cells in the well was simultaneously performed in the green fluorescent channel corresponding to the secondary antibody and in the bright field channel.” left out

[12] = target: T3, human CLDN18.1; experiment: imaging cytometry (% fluorescent cells), CHOS-hCLDN18.1 cells
From the text: as §3, §5
as §4, with “During the measurement, high-speed scanning imaging of the cells in the well was simultaneously performed in the green fluorescent channel corresponding to the secondary antibody and in the bright field channel.” left out

T3 sequence (P56856 whole entry): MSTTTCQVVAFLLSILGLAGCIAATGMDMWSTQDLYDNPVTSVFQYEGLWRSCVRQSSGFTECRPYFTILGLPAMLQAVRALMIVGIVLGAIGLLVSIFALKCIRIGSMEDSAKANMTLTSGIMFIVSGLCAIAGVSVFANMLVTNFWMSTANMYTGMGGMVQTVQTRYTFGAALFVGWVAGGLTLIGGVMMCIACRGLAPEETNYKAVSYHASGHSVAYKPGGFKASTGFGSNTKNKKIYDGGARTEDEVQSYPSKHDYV

Row | CDC EC50, KATO-III target cells, human serum [1] [µg/mL] | ADCC EC50, KATO-III target cells, human PBMC effectors [2] [µg/mL] | EC50 [3] [µg/mL] | CDC EC50, HEK293T-hCLDN18.2 target cells, human serum [4] [µg/mL] | CDC EC50, KATO-III target cells, human serum [4] [µg/mL] | ADCC EC50, HEK293T-hCLDN18.2 target cells, human PBMC effectors [5] [µg/mL] | ADCC EC50, KATO-III target cells, human PBMC effectors [5] [µg/mL] | ADCC EC50, NUGC4 target cells, human PBMC effectors [5] [µg/mL] | EC50 [6] [µg/mL] | Internalization percentage (%), HEK293T-hCLDN18.2 cells, flow cytometry, 10 µg/mL antibody [7] [%] | EC50 [8] [µg/mL] | EC50 [9] [µg/mL] | EC50 [10] [µg/mL] | EC50 [11] [µg/mL] | EC50 [12] [µg/mL] | Binder
1 | 0.33 | 0.0028 | 0.051 |  |  |  |  |  |  |  |  |  |  |  |  | 7004-09hu09 (antibody, human IgG1, kappa, V domains shown, humanized antibody of murine 44F7, human IgG1/kappa constant regions) VH: QVQLVQSGAEVKKPGASVKVSCKASGYTFTSYNMHWVRQAPGQGLEWMGTIYPGNGDTSYNQKFQGRVTMTRDKSTSTVYMELSSLRSEDTAVYFCARGGYYGNSLDYWGQGTLVTVSA VL: DIVMTQSPDSLAVSLGERATINCKSSQSLLNSGNQKNYLAWYQQKPGQPPKLLIYWASTRESGVPDRFSGSGSGTDFTLTISSLQAEDVAVYYCQNAYYYPFTFGQGTKLEIKR
2 | 0.27 | 0.0061 | 0.008 |  |  |  |  |  |  |  |  |  |  |  |  | 7004-09hu15 (antibody, human IgG1, kappa, V domains shown, humanized antibody of murine 44F7, human IgG1/kappa constant regions) VH: QVQLVQSGAEVKKPGASVKVSCKASGYTFTSYYMHWVRQAPGQGLEWMGTIYPGNGDTSYNQKFQGRVTMTRDKSTSTVYMELSSLRSEDTAVYFCARGGYYGNSLDYWGQGTLVTVSA VL: DIVMTQSPDSLAVSLGERATINCKSSQSVLNSGNQKNYLAWYQQKPGQPPKLLIYWASTRESGVPDRFSGSGSGTDFTLTISSLQAEDVAVYYCQNAYYYPFTFGQGTKLEIKR
3 | 0.27 | 0.0033 | 0.047 |  |  |  |  |  |  |  |  |  |  |  |  | 7004-09hu10 (antibody, human IgG1, kappa, V domains shown, humanized antibody of murine 44F7, human IgG1/kappa constant regions) VH: QVQLVQSGAEVKKPGASVKVSCKASGYTFTSYYMHWVRQAPGQGLEWMGTIYPGNGDTSYNQKFQGRVTMTRDKSTSTVYMELSSLRSEDTAVYFCARGGYYGNSLDYWGQGTLVTVSA VL: DIVMTQSPDSLAVSLGERATINCKSSQSLLNSGNQKNYLTWYQQKPGQPPKLLIYWASTRESGVPDRFSGSGSGTDFTLTISSLQAEDVAVYYCQNAYYYPFTFGQGTKLEIKR
4 | 0.52 | 0.0117 | 0.012 | 0.6 | 0.18 | 0.0078 | 0.099 | 0.047 | 0.027 | -1.5 |  |  |  |  |  | 44F7-chIgG1 (antibody, V domains shown, human-mouse chimeric antibody, human IgG1/kappa constant regions; also called parental chimeric antibody) VH: QVQLQQSGAELVRPGASVKMSCKASGYTFTSYNMHWVKQAPRQGLEWIGTIYPGNGDTSYNQKFKGKATLTVDKSSSTAYMQLSSLTSEDSAVYFCARGGYYGNSLDYWGQGTTLTVSS VL: DIQMTQSPSSLTVTAGEKVTMSCKSSQSLLNSGNQKNYLTWYQQKPGQPPKLLIYWASTRESGVPDRFTGSGSGTDFTLTISSVQAEDLAVYYCQNAYYYPFTFGSGTKLEIKR
5 | 34.8 | 0.788 | 0.035 | 18.2 |  | 0.058 | 2.4 |  | 0.536 |  | 6.54 | 0.81 |  |  |  | 175D10 (antibody, human IgG1, kappa, V domains shown) VH: QVQLQQPGAELVRPGASVKLSCKASGYTFTSYWINWVKQRPGQGLEWIGNIYPSDSYTNYNQKFKDKATLTVDKSSSTAYMQLSSPTSEDSAVYYCTRSWRGNSFDYWGQGTTLTVSS VL: DIVMTQSPSSLTVTAGEKVTMSCKSSQSLLNSGNQKNYLTWYQQKPGQPPKLLIYWASTRESGVPDRFTGSGSGTDFTLTISSVQAEDLAVYYCQNDYSYPFTFGSGTKLEIKR
6 |  |  |  |  |  |  |  |  |  |  | 0.026 | 0.691 | 0.018 | 0.041 | 0.092 | 1D10 (antibody, V domains shown, murine monoclonal antibody purified from hybridoma culture supernatant; also called ID10) VH: QVQLQQPGAELVKPGASVKLSCKASGYTFTSYWMHWVKQRPGQGLEWIGMIYPNSGSINYNEKFKNKATLTVDKSSSTAYMQLSSLTSEDSAVYFCSVYFDYWGQGTTLTVSS VL: DIQGTQSPSSLSASLGERVSLTCRASQDIGSSLNWLQQEPDGTIKRLIYATSSLDSGVPKRFSVSRSGSDYSLTISSLESEDFVDYYCLQYASSPPTFGGGTKLEIK
7 |  |  |  |  |  |  |  |  |  |  | 0.068 | 0.179 | 0.091 | 0.714 |  | 5F9 (antibody, V domains shown, murine monoclonal antibody purified from hybridoma culture supernatant) VH: QVQLQQSGAELVKPGASVKLSCKASGYTFTSYWMHWVKQRPGQGLEWIGMIHPNSVSTNYNEKFKSKATLTVDKSSSTAYMQLSSLTSEDSAVYYCAVYFDYWGQGTTLTVSS VL: DIQVTQSPSSLSASLGERVSLTCRASQDIGSSLNWLQQEPDGTIKRLIYASSSLNSGVPKRFSVSRSGSDYSLTISSLESEDFVDYYCLQYATSPPTFGGGTKLEIK
